Laboratory results from patent US20220227866A1 (VELOSBIO, published 2022).
“And” between values parts separate entries of the source, which are not always exact repeats. Identical values can stand only once.

Experiments:
[1] = molecular target: T1, human CD3 on Jurkat cells (human, UniProt P09693 23-182; P04234 22-171; P07766 23-207); test: flow cytometry on Jurkat cells
T1 construct: GenBank NP_000064.1, NP_000723.1, NP_000724.1
Procedure: To quantitate CD3 binding, 2.5E5 Jurkat cells were used for each condition. A 2× stock of the cells was made by resuspending the cells to 5E6/mL by placing in 50 μL of PBS with 2% FBS. Next, the cells were diluted with an equal volume of 2× stock of the test bispecific binding molecule. The cells and antibody were co-incubated on ice for 20 min. The cells were then washed 3 times with 300 μL of FACS buffer and were resuspended in 100 μL of goat anti-human Fc-PE conjugate antibody (Invitrogen cat. #12499882) at 1:500 dilution and incubated on ice with reduced light for 20 min. The cells were then washed 3 times with 300 μL of FACS buffer and fixed with 2% paraformaldehyde for 10 min at 25° C. The cells were washed 2 times with 300 μL of FACS buffer and analyzed on a Miltenyi MACSQuant Analyzer.

[2] = molecular target: T2, soluble biotinylated human ROR1 extracellular domain (human, UniProt Q01973 30-406, biotinylated with EZ-Link Sulfo-NHS-LC-Biotin at a 1:5 molar ratio); test: ELISA, captured construct, biotinylated ROR1 titrated
T2 construct: Acro Biosystems cat; whole entry named; also called b-ROR1; soluble b-ROR1
T2 sequence (Q01973 30-406 limits assumed): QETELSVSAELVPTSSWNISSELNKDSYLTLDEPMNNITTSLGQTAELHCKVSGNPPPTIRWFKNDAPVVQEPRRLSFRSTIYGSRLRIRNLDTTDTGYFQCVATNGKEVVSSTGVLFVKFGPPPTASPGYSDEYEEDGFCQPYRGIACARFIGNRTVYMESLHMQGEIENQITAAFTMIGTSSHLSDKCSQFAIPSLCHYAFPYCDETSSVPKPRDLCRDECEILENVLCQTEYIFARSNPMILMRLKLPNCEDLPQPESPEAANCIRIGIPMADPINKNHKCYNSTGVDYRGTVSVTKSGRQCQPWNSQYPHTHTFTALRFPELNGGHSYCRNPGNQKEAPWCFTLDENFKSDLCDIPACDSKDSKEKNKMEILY
Procedure: To measure the binding of bispecific constructs to soluble ROR1, a 96-well Costar-3366 plate was coated with 50 μL/well of 2 μg/mL goat anti-human kappa (Southern Biotech cat. #2060-01) in PBS overnight at 4° C. The plate was rinsed once with PBS-T, blocked with 100 μL/well 5% M-P for 1 h at 25° C., rinsed once with PBS-T, and 2 μg/mL of the bispecific binding molecule was added and incubated for 1 h at 25° C. The plate was washed three times with PBS-T. Biotinylated ROR1 was diluted serially, 3-fold in 5% M-P and was incubated for 1 h at 25° C. (50 μL/well). The plate was washed three times with PBS-T. To detect the binding of b-ROR1, 50 μL/well Neutravidin-HRP (Pierce cat. #31030) diluted 1:5000 in 1% BSA-PBS was added for 1 h at 25° C. The plate was washed three times with PBS-T, then developed with 50 μL/well 1-Step Ultra TMB-ELISA (Thermo Scientific cat. #34028). The reaction was terminated by the addition of 2 N H₂SO₄ and the A450 was determined using a Spectramax plate reader.
The stronger binding observed with bivalent constructs versus monovalent constructs in cell assays and ELISAs in which the antigen is immobilized is consistent with an avidity effect. To determine if this was the case, binding to soluble monomeric ROR1 was assessed by immobilizing the bispecific binding molecules on a microtiter plate coated with goat anti-human kappa antibody and titrating biotinylated RORL. All bispecific binding molecules were active in this format (FIG. 7), and in most cases, there were no notable differences between monovalent and bivalent constructs.

human ROR1 on cells = human ROR1 on cells (human, UniProt Q01973 30-937); test: cell-based or functional assay
human ROR1 on cells, sequence (Q01973 30-937 limits assumed): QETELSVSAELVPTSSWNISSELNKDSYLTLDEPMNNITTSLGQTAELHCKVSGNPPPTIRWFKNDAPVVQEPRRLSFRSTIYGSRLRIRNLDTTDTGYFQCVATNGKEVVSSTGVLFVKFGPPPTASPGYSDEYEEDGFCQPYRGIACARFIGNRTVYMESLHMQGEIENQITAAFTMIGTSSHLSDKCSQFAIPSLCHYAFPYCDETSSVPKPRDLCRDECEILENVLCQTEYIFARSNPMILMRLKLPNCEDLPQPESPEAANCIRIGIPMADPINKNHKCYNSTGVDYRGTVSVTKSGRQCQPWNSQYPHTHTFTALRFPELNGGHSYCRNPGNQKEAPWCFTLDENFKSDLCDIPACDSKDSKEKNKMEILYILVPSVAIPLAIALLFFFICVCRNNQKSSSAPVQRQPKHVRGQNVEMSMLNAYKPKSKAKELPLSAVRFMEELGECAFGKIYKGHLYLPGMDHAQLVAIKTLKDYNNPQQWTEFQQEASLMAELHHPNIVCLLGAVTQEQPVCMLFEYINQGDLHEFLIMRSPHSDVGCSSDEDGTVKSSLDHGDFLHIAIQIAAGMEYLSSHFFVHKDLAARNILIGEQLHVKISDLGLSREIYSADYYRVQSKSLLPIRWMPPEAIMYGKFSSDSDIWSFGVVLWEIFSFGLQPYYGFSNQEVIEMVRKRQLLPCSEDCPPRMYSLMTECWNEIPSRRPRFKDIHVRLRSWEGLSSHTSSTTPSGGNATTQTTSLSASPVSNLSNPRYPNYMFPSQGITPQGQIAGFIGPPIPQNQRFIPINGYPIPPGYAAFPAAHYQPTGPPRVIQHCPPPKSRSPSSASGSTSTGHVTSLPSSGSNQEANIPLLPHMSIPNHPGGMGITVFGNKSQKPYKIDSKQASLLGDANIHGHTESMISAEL

T1 sequence (P09693 23-182 limits assumed, chain 1 of 3): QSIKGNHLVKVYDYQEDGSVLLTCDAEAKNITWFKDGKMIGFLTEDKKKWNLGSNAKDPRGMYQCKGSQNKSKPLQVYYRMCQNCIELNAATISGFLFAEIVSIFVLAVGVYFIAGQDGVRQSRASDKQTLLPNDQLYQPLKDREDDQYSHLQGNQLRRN
T1 sequence (P04234 22-171 limits assumed, chain 2 of 3): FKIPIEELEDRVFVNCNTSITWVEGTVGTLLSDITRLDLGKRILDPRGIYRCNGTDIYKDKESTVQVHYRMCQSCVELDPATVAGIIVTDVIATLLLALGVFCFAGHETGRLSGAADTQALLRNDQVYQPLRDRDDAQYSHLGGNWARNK
T1 sequence (P07766 23-207 limits assumed, chain 3 of 3): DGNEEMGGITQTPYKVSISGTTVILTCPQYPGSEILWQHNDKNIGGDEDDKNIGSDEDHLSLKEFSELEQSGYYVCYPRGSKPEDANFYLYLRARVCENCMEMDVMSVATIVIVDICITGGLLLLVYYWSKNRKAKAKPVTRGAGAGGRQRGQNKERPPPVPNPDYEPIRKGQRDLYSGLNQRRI

B1: Bispecific construct 18 (bispecific antibody, human IgG1, kappa)
heavy: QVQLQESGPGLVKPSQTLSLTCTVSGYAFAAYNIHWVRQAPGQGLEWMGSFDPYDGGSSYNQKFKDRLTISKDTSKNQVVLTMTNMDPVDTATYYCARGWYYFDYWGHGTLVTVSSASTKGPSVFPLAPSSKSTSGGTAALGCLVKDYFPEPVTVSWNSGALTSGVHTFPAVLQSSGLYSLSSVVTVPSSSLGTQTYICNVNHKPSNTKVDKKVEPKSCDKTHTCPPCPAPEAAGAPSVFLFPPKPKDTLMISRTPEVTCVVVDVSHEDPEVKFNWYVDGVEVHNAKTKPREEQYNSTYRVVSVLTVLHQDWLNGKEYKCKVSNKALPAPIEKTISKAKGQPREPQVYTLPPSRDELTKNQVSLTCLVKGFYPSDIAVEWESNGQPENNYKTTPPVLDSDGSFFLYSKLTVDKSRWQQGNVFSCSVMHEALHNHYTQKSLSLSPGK
light: DIVMTQTPLSLPVTPGEPASISCRASKSISKYLAWYQQKPGQAPRLLIYSGSTLQSGIPPRFSGSGYGTDFTLTINNIESEDAAYYFCQQHDESPYTFGEGTKVEIKRTVAAPSVFIFPPSDEQLKSGTASVVCLLNNFYPREAKVQWKVDNALQSGNSQESVTEQDSKDSTYSLSSTLTLSKADYEKHKVYACEVTHQGLSSPVTKSFNRGECGGGGSGGGGSEVQLVESGGGLVQPGGSLRLSCAASGFTFNTYAMNWVRQAPGKGLEWVARIRSKYNNYATYYADSVKGRFTISRDDSKNTLYLQMNSLRAEDTAVYYCVRHGNFGNSYVSYFAYWGQGTTVTVSSGGGGSGGGGSGGGGSGGGGSEIVVTQSPATLSVSPGERATLSCRSSTGAVTAANYANWVQEKPGQAFRGLIGGANKRAPGVPARFSGSLSGDEATLTISSLQSEDFAVYYCALFYSNLWVFGQGTKLEIK
notes: anti-CD3 scFv Ab10; valency 2/2
binding result [1]: binds
Kd [2]: 0.048 nM
EC50, LDH release, ROR1-transfected MEC (human ROR1 on cells): 3.5 ng/mL and 17 pM
Max. LDH Release, ROR1-transfected MEC (human ROR1 on cells): 34%

B2: Bispecific construct 16 (bispecific antibody, human IgG1, kappa)
heavy 1: not shown
heavy 2: EVQLVESGGGLVQPGGSLRLSCAASGFTFNTYAMNWVRQAPGKGLEWVARIRSKYNNYATYYADSVKGRFTISRDDSKNTLYLQMNSLRAEDTAVYYCVRHGNFGNSYVSYFAYWGQGTTVTVSSGGGGSGGGGSGGGGSGGGGSEIVVTQSPATLSVSPGERATLSCRSSTGAVTAANYANWVQEKPGQAFRGLIGGANKRAPGVPARFSGSLSGDEATLTISSLQSEDFAVYYCALFYSNLWVFGQGTKLEIKEPKSSDKTHTCPPCPAPEAAGAPSVFLFPPKPKDTLMISRTPEVTCVVVDVSHEDPEVKFNWYVDGVEVHNAKTKPREEQYNSTYRVVSVLTVLHQDWLNGKEYKCKVSNKALPAPIEKTISKAKGQPREPQVYTLPPSRDELTKNQVSLSCAVKGFYPSDIAVEWESNGQPENNYKTTPPVLDSDGSFFLVSKLTVDKSRWQQGNVFSCSVMHEALHNHYTQKSLSLSPGK
light: DIVMTQTPLSLPVTPGEPASISCRASKSISKYLAWYQQKPGQAPRLLIYSGSTLQSGIPPRFSGSGYGTDFTLTINNIESEDAAYYFCQQHDESPYTFGEGTKVEIKRTVAAPSVFIFPPSDEQLKSGTASVVCLLNNFYPREAKVQWKVDNALQSGNSQESVTEQDSKDSTYSLSSTLTLSKADYEKHKVYACEVTHQGLSSPVTKSFNRGEC
notes: anti-CD3 scFv Ab10; valency 1/1
binding result [1]: binds
Kd [2]: 0.057 nM

B3: Bispecific construct 19 (bispecific antibody, human IgG1, kappa)
heavy 1: not shown
heavy 2: EVQLVESGGGLVQPGGSLRLSCAASGFTFNTYAMNWVRQAPGKGLEWVARIRSKYNNYATYYADSVKGRFTISRDDSKNTLYLQMNSLRAEDTAVYYCVRHGNFGNSYVSYFAYWGQGTTVTVSSGGGGSGGGGSGGGGSGGGGSEIVVTQSPATLSVSPGERATLSCRSSTGAVTAANYANWVQEKPGQAFRGLIGGANKRAPGVPARFSGSLSGDEATLTISSLQSEDFAVYYCALFYSNLWVFGQGTKLEIKGGGGSGGGGSQVQLQESGPGLVKPSQTLSLTCTVSGYAFTAYNIHWVRQAPGQGLEWMGSFDPYDGGSSYNQKFKDRLTISKDTSKNQVVLTMTNMDPVDTATYYCARGWYYFDYWGHGTLVTVSSASTKGPSVFPLAPSSKSTSGGTAALGCLVKDYFPEPVTVSWNSGALTSGVHTFPAVLQSSGLYSLSSVVTVPSSSLGTQTYICNVNHKPSNTKVDKKVEPKSCDKTHTCPPCPAPEAAGAPSVFLFPPKPKDTLMISRTPEVTCVVVDVSHEDPEVKFNWYVDGVEVHNAKTKPREEQYNSTYRVVSVLTVLHQDWLNGKEYKCKVSNKALPAPIEKTISKAKGQPREPQVYTLPPSRDELTKNQVSLSCAVKGFYPSDIAVEWESNGQPENNYKTTPPVLDSDGSFFLVSKLTVDKSRWQQGNVFSCSVMHEALHNHYTQKSLSLSPGK
light: DIVMTQTPLSLPVTPGEPASISCRASKSISKYLAWYQQKPGQAPRLLIYSGSTLQSGIPPRFSGSGYGTDFTLTINNIESEDAAYYFCQQHDESPYTFGEGTKVEIKRTVAAPSVFIFPPSDEQLKSGTASVVCLLNNFYPREAKVQWKVDNALQSGNSQESVTEQDSKDSTYSLSSTLTLSKADYEKHKVYACEVTHQGLSSPVTKSFNRGEC
notes: CD3 valency 1, ROR1 valency 2
Kd [2]: 0.2 nM

B4: Bispecific construct 17 (bispecific antibody, human IgG1, kappa)
heavy 1: not shown
heavy 2: EVQLVESGGGLVQPGGSLRLSCAASGFTFNTYAMNWVRQAPGKCLEWVARIRSKYNNYATYYADSVKGRFTISRDDSKNTLYLQMNSLRAEDTAVYYCVRHGNFGNSYVSYFAYWGQGTTVTVSSGGGGSGGGGSGGGGSGGGGSEIVVTQSPATLSVSPGERATLSCRSSTGAVTAANYANWVQEKPGQAFRGLIGGANKRAPGVPARFSGSLSGDEATLTISSLQSEDFAVYYCALFYSNLWVFGCGTKLEIKEPKSSDKTHTCPPCPAPEAAGAPSVFLFPPKPKDTLMISRTPEVTCVVVDVSHEDPEVKFNWYVDGVEVHNAKTKPREEQYNSTYRVVSVLTVLHQDWLNGKEYKCKVSNKALPAPIEKTISKAKGQPREPQVYTLPPSRDELTKNQVSLSCAVKGFYPSDIAVEWESNGQPENNYKTTPPVLDSDGSFFLVSKLTVDKSRWQQGNVFSCSVMHEALHNHYTQKSLSLSPGK
light: DIVMTQTPLSLPVTPGEPASISCRASKSISKYLAWYQQKPGQAPRLLIYSGSTLQSGIPPRFSGSGYGTDFTLTINNIESEDAAYYFCQQHDESPYTFGEGTKVEIKRTVAAPSVFIFPPSDEQLKSGTASVVCLLNNFYPREAKVQWKVDNALQSGNSQESVTEQDSKDSTYSLSSTLTLSKADYEKHKVYACEVTHQGLSSPVTKSFNRGEC
notes: disulfide-stabilized anti-CD3 scFv Ab10; valency 1/1
binding result [1]: binds
Kd [2]: 0.068 nM

B5: control 1 (bispecific antibody)
polypeptide, role not told 1: QLVLTQSPSASASLGSSVKLTCTLSSGHKTDTIDWYQQQPGKAPRYLMKLEGSGSYNKGSGVPDRFSGSSSGADWYLTISSLQSEDEADYYCGTDYPGNYLFGGGTQLTVLGGGGSGGGGEVQLVESGGGLVQPGGSLRLSCAASGFTFSTYAMNWVRQAPGKGLEWVGRIRSKYNNYATYYADSVKGRFTISRDDSKNSLYLQMNSLKTEDTAVYYCVRHGNFGNSYVSWFAYWGQGTLVTVSSASTKGEVAACEKEVAALEKEVAALEKEVAALEKGGGDKTHTCPPCPAPEAAGGPSVFLFPPKPKDTLMISRTPEVTCVVVDVSHEDPEVKFNWYVDGVEVHNAKTKPREEQYNSTYRVVSVLTVLHQDWLNGKEYKCKVSNKALPAPIEKTISKAKGQPREPQVYTLPPSREEMTKNQVSLWCLVKGFYPSDIAVEWESNGQPENNYKTTPPVLDSDGSFFLYSKLTVDKSRWQQGNVFSCSVMHEALHNHYTQKSLSLSPGK
polypeptide, role not told 2: QAVVTQEPSLTVSPGGTVTLTCRSSTGAVTTSNYANWVQQKPGQAPRGLIGGTNKRAPWTPARFSGSLLGGKAALTITGAQAEDEADYYCALWYSNLWVFGGGTKLTVLGGGGSGGGGQEQLVESGGGLVQPGGSLRLSCAASGFTFSDYYMSWIRQAPGKGLEWVATIYPSSGKTYYADSAKGRLTISSDNAKDSLYLQMNSLRAEDTAVYYCTRDSYADDAALFDIWGQGTTVTVSSASTKGKVAACKEKVAALKEKVAALKEKVAALKE
polypeptide, role not told 3: not shown
binding result [1]: binds

B6: Bispecific construct 20 (bispecific antibody, human IgG1, kappa)
heavy: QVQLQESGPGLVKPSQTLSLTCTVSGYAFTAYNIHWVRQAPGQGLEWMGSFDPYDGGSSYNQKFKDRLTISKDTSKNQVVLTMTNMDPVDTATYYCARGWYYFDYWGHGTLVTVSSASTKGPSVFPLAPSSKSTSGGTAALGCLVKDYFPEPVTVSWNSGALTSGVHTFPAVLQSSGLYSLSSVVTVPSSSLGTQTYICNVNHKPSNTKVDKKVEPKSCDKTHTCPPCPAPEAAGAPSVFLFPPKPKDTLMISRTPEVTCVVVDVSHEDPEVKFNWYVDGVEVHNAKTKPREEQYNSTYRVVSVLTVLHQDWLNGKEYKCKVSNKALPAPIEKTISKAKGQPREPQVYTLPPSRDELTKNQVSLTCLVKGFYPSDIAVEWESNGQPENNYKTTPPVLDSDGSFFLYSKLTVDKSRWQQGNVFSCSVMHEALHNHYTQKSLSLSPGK
light: EVQLVESGGGLVQPGGSLRLSCAASGFTFNTYAMNWVRQAPGKGLEWVARIRSKYNNYATYYADSVKGRFTISRDDSKNTLYLQMNSLRAEDTAVYYCVRHGNFGNSYVSYFAYWGQGTTVTVSSGGGGSGGGGSGGGGSGGGGSEIVVTQSPATLSVSPGERATLSCRSSTGAVTAANYANWVQEKPGQAFRGLIGGANKRAPGVPARFSGSLSGDEATLTISSLQSEDFAVYYCALFYSNLWVFGQGTKLEIKGGGGSGGGGSDIVMTQTPLSLPVTPGEPASISCRASKSISKYLAWYQQKPGQAPRLLIYSGSTLQSGIPPRFSGSGYGTDFTLTINNIESEDAAYYFCQQHDESPYTFGEGTKVEIKRTVAAPSVFIFPPSDEQLKSGTASVVCLLNNFYPREAKVQWKVDNALQSGNSQESVTEQDSKDSTYSLSSTLTLSKADYEKHKVYACEVTHQGLSSPVTKSFNRGEC
notes: valency 2/2
Kd [2]: 0.366 nM
EC50, LDH release, ROR1-transfected MEC (human ROR1 on cells): 1.8 ng/mL and 9 pM
Max. LDH Release, ROR1-transfected MEC (human ROR1 on cells): 37%
